Experimental data reported in patent publication US20260242478A1 (published 2026).

What was measured:
[1] = molecular target: T1, Anti-CD28 Fab (SEQ ID NOs: 696, 697); experiment: phage binding ELISA on captured Fab; competitor: CD28 antigen pre-incubated in the wells
T1 construct: Biotinylated and captured on neutravidin coated plates in the phage ELISA
T1 sequence (VH, as listed by the source, chain 1 of 2): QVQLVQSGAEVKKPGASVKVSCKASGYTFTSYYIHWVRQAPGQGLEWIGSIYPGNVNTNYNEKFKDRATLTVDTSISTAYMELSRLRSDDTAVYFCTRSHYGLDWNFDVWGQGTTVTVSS
T1 sequence (VL, as listed by the source, chain 2 of 2): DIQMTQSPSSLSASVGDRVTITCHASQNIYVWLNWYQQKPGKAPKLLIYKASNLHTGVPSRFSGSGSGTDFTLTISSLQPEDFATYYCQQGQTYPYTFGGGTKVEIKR
Experimental: (§1) After panning, phage infected bacteria were plated out and colonies picked into 96 well blocks. Clonal phage was then amplified and separated from bacterial cells via centrifugation.
(§2) Clonal phage were harvested as crude supematants and screened via standard ELISAs. […] Prior to the addition of clonal phage, wells were incubated with blocking buffer and CD28 antigen or blocking buffer alone. Without washing or aspirating, clonal phage supematants were then added to the wells and incubated for a short time. Wells were then washed followed by detection of bound phage using a horse radish conjugated anti-M13 antibody. Clonal phage of interest were then sent for sequence analysis.

[2] = molecular target: Anti-CD28 Fab (SEQ ID NOs: 696, 697); experiment: phage binding ELISA; biotinylated Fab on neutravidin plate, anti-M13 HRP detection
Target sequence in this assay (VH, as listed by the source, chain 1 of 2): as the sequence (VH, as listed by the source, chain 1 of 2) above
Target sequence in this assay (VL, as listed by the source, chain 2 of 2): as the sequence (VL, as listed by the source, chain 2 of 2) above
Experimental: as §1, §2

[3] = molecular target: Anti-CD28 Fab (SEQ ID NOs: 696, 697); experiment: phage binding ELISA on Fab coated plate; CD28 antigen as competitor
Target sequence in this assay (VH, as listed by the source, chain 1 of 2): as the sequence (VH, as listed by the source, chain 1 of 2) above
Target sequence in this assay (VL, as listed by the source, chain 2 of 2): as the sequence (VL, as listed by the source, chain 2 of 2) above
Experimental: as §1, §2

[4] = molecular target: T2, Anti-CD28 Fab (SEQ ID NOs: 696, 697); experiment: phage ELISA on plate-captured anti-CD28 Fab pre-incubated with CD28 antigen (competitor: CD28)
T2 construct: Biotinylated and captured on neutravidin coated plates in the phage ELISA
T2 sequence (VH, as listed by the source, chain 1 of 2): as the sequence (VH, as listed by the source, chain 1 of 2) above
T2 sequence (VL, as listed by the source, chain 2 of 2): as the sequence (VL, as listed by the source, chain 2 of 2) above
Experimental: as §1, §2

[5] = molecular target: T2, Anti-CD28 Fab (SEQ ID NOs: 696, 697); experiment: phage ELISA, clonal phage on plate-captured biotinylated anti-CD28 Fab, anti-M13 HRP detection
Experimental: as §1, §2

[6] = molecular target: T3, Anti-CD28 Fab (SEQ ID NOs: 696, 697); experiment: phage ELISA; clonal phage on plate-captured biotinylated anti-CD28 Fab, anti-M13 HRP detection
T3 construct: Biotinylated and captured on neutravidin coated plates in the phage ELISA
T3 sequence (VH, as listed by the source, chain 1 of 2): as the sequence (VH, as listed by the source, chain 1 of 2) above
T3 sequence (VL, as listed by the source, chain 2 of 2): as the sequence (VL, as listed by the source, chain 2 of 2) above
Experimental: as §1, §2

[7] = molecular target: T3, Anti-CD28 Fab (SEQ ID NOs: 696, 697); experiment: phage ELISA; clonal phage on plate-captured anti-CD28 Fab pre-incubated with CD28 antigen as competitor
Experimental: as §1, §2

Binder	Anti-CD28 Fab (SEQ ID NOs: 696, 697) signal [2]	Anti-CD28 Fab signal in the presence of CD28 [3]	Phage binding ELISA, Anti-CD28 Fab signal [6]	Phage binding ELISA, Anti-CD28 Fab signal in the presence of CD28 [7]	further results
YCSGHLPQYLEKCL (tested as crude clonal phage supernatant) [Phage-1017 (Peptide-87 library peptide, SEQ ID NO: 1333)]	–	–	–	–	Anti-CD28 Fab signal in the presence of CD28 (phage binding ELISA) [1]: 0.31
YCEGHVLEYRGKCD [Phage-1026]	1.48	0.09	–	–	–
YCDGHVAEYRHKCL [Phage-1027]	1.47	0.06	–	–	–
YCAGHTQEYIEKCL [Phage-1029]	1.47	0.06	–	–	–
YCEGHSEEFMSKCL [Phage-982]	–	–	–	–	Anti-CD28 Fab signal in the presence of CD28 (phage binding ELISA) [4]: 0.08; Anti-CD28 Fab signal (phage binding ELISA) [5]: 1.57
YCDGHLPEYLAKCL (tested as crude clonal phage supernatant) [Phage-1005]	–	–	1.52	0.06	–
YCDGHHKEYLLKCL (tested as crude clonal phage supernatant) [Phage-1018 (Peptide-87 library peptide, SEQ ID NO: 1334)]	–	–	–	–	Anti-CD28 Fab signal in the presence of CD28 (phage binding ELISA) [1]: 0.06
YCDGHSLEYMVKCL [Phage-1033]	1.46	0.06	–	–	–
YCDGHSVEYLDKCL (tested as crude clonal phage supernatant) [Phage-1003]	–	–	1.53	0.08	–
YCDGHLQIYMGKCL (tested as crude clonal phage supernatant) [Phage-1002]	–	–	1.53	0.06	–
YCEGHSLEHIAKCL [Phage-1034]	1.46	0.07	–	–	–
YCEGHTPVYMPKCL [Phage-1035]	1.46	0.06	–	–	–
YCEGHRPEYMQKCV [Phage-1024]	1.48	0.09	–	–	–
YCDGHLPEYITKCL [Phage-1023]	1.49	0.06	–	–	–
YCEGHLGQYMEKCL (tested as crude clonal phage supernatant) [Phage-998]	–	–	1.54	0.08	–
YCEGHAPVYMFKCL (tested as crude clonal phage supernatant) [Phage-997]	–	–	1.54	0.08	–
YCDGHAEEYLLKCL [Phage-979]	–	–	–	–	Anti-CD28 Fab signal in the presence of CD28 (phage binding ELISA) [4]: 0.05; Anti-CD28 Fab signal (phage binding ELISA) [5]: 1.57
YCDGHSWQYMWKCI [Phage-981]	–	–	–	–	Anti-CD28 Fab signal in the presence of CD28 (phage binding ELISA) [4]: 0.09; Anti-CD28 Fab signal (phage binding ELISA) [5]: 1.57
YCEGHLGIYMTKCL [Phage-980]	–	–	–	–	Anti-CD28 Fab signal in the presence of CD28 (phage binding ELISA) [4]: 0.08; Anti-CD28 Fab signal (phage binding ELISA) [5]: 1.57

Binder	Anti-CD28 Fab (SEQ ID NOs: 696, 697) signal [2]	Anti-CD28 Fab signal in the presence of CD28 [3]	Phage binding ELISA, Anti-CD28 Fab signal [6]	Phage binding ELISA, Anti-CD28 Fab signal in the presence of CD28 [7]	further results
YCDGHAPEYLTKCL (tested as crude clonal phage supernatant) [Phage-1000]	–	–	1.53	0.06	–
YCAGHLPVYMDKCL (tested as crude clonal phage supernatant) [Phage-1007]	–	–	1.52	0.08	–
YCDGHLAIYIGKCL [Phage-1030]	1.47	0.08	–	–	–
YCDGHNGVYWWKCI (tested as crude clonal phage supernatant) [Phage-999]	–	–	1.53	0.07	–
YCDGHSPQYIQKCL (tested as crude clonal phage supernatant) [Phage-1016 (Peptide-87 library peptide, SEQ ID NO: 1332)]	–	–	–	–	Anti-CD28 Fab signal in the presence of CD28 (phage binding ELISA) [1]: 0.07
YCEGHSAMYIWKCL (tested as crude clonal phage supernatant) [Phage-1008]	–	–	1.52	0.1	–
YCEGHSIQYMTKCL (tested as crude clonal phage supernatant) [Phage-1001]	–	–	1.53	0.13	–
YCDGHAWQYMWKCL (tested as crude clonal phage supernatant) [Phage-1004]	–	–	1.53	0.07	–
YCDGHLAVYMAKCL (tested as crude clonal phage supernatant) [Phage-1006]	–	–	1.52	0.08	–
YCQGHADEYMAKCL [Phage-978]	–	–	–	–	Anti-CD28 Fab signal in the presence of CD28 (phage binding ELISA) [4]: 0.08; Anti-CD28 Fab signal (phage binding ELISA) [5]: 1.58
YCDGHSAEYLSKCL (tested as crude clonal phage supernatant) [Phage-1011 (Peptide-87 library peptide, SEQ ID NO: 1327)]	–	–	–	–	Anti-CD28 Fab signal in the presence of CD28 (phage binding ELISA) [1]: 0.07
YCEGHLDQYMTKCL [Phage-1028]	1.47	0.08	–	–	–
YCAGHLEEYMWKCL (tested as crude clonal phage supernatant) [Phage-1009]	–	–	1.51	0.08	–
YCDGHLEIYMSKCL [Phage-1031]	1.46	0.08	–	–	–
YCAGHTVENMAKCL [Phage-1025]	1.48	0.07	–	–	–
YCDGHLALHMKKCL (tested as crude clonal phage supernatant) [Phage-1019 (Peptide-87 library peptide, SEQ ID NO: 1335)]	–	–	–	–	Anti-CD28 Fab signal in the presence of CD28 (phage binding ELISA) [1]: 0.08
YCDGHLLEYMSKCL [Phage-1032]	1.46	0.09	–	–	–
YCDGHKAEYMQKCL (tested as crude clonal phage supernatant) [Phage-1015 (Peptide-87 library peptide, SEQ ID NO: 1331)]	–	–	–	–	Anti-CD28 Fab signal in the presence of CD28 (phage binding ELISA) [1]: 0.06
